We go through 11 molecules from patent US20230235047A1 (Innovent, published 2023).

Substitutions are numbered along the chain they refer to.

In test [1] the target is T1, human CLDN18.1 on cells (CHO-hCLDN18.1) (human, UniProt P56856 1-261).
T1 construct: whole, on cells; also called human Claudin18.1
Put plainly: flow cytometry (FACS) on CHO-hCLDN18.1 cells. The procedure:
(§1) The binding of each of the above 9 antibodies to the CHO-S cell lines stably transfected with human CLDN18.2 and human CLDN18.1 (i.e., CHO-hCLDN18.2 and CHO-hCLDN18.1 prepared as described in the Examples) obtained in Example 1 was determined by flow cytometry (FACS). Reference was made to Example 2 for the experimental methods. The experimental data were analyzed using GraphPad Prism software, and FIGS. 1 and 2 were obtained.

Test [2] has as its target T2, human Claudin18.2 protein (P50251802, GenScript) (human, UniProt P56856-2 1-261, limits assumed).
T2 construct: also called human CLDN18.2
Kind of test: BLI (Fortebio Octet Red96), AHC sensor, antibody and human Claudin18.2 protein (GenScript). The procedure:
The equilibrium dissociation constant (KD) for binding of the antibodies of the present invention to human CLDN18.2 was determined by bio-layer interferometry (BLI). A BLI affinity assay was conducted according to the existing method (Estep, P et al., High throughput solution based measurement of antibody-antigen affinity and epitope binding. MAbs, 2013.5(2): p. 270-8). The AHC (18-5060, Fortebio) sensor was soaked in SD buffer (lx PBS, BSA 0.1%, Tween-20 0.05%). 100 μL of SD buffer, each antibody and human Claudin18.2 protein (P50251802, GenScript) were added to a 96-well black polystyrene half-area microplate (Greiner, 675076), respectively. The detection was performed using Fortebio Octet Red96, and the KD values were analyzed using Fortebio Octet analysis software.
(In general: BLI is a label-free optical method that tracks binding on a fibre tip over time.)

The target in test [3] is T3, human CLDN18.2 on cells (CHO-hCLDN18.2, HEK293-hCLDN18.2, KATO III-hCLDN18.2, DAN-G-hCLDN18.2, NUGC-4) (human, UniProt P56856-2 1-261).
T3 construct: whole, on cells; NUGC-4 is used untransfected; also called human Claudin18.2
Kind of test: flow cytometry (FACS) on CHO-hCLDN18.2 cells, MFI against Log[Conc.(nM)]; EC50 from the table under the plot. The procedure:
as §1

Test [4] addresses T3, human CLDN18.2 on cells (CHO-hCLDN18.2, …). The description is as above. As to the method:
as §1
The source holds these as a separate data set.

The target is the same in test [5]. Kind of test: flow cytometry (FACS) on DAN-G-hCLDN18.2 cells, MFI against Log[Conc (nM)]; EC50 from the table under the plot. As to the method:
(§2) Referring to Example 4, the binding of the two antibodies to each of the gastric cancer cell line NUGC-4, the gastric cancer cell line KATO III-hCLDN18.2 and the pancreatic cancer cell line DAN-G-hCLDN18.2 was determined by FACS.

Test [6] deals with T2, human Claudin18.2 protein (P50251802, …). Kind of test: SPR (Biacore T200), human Claudin18.2 amine-coupled to the chip, antibody 0-100 nM in the mobile phase, 1:1 model. As to the method:
According to the manufacturer's instructions, human Claudin18.2 (GenScrip, P50251802) was coupled to the surface of a CMS chip (GE Healthcare, 29-1496-03) using the amino coupling kit (GE Healthcare, BR-1006-33), and the remaining activation sites were blocked by injection of 1 M ethanolamine after coupling. According to the manufacturer's instructions, the binding and dissociation between the antigen on the chip surface and antibodies in the mobile phase were determined by Biacore (GE Healthcare, T200) to obtain affinity and kinetic constants. The antibodies (0-100 nM) after gradient dilution flowed over the chip surface in an order from low to high concentrations, with the binding time of 180 s and the dissociation time of 600 s. Finally, the chip was regenerated using 10 mM Glycine pH 1.5 (GE Healthcare, BR-1003-54). Kinetic analysis of the data results were performed using Biacore T200 analysis software with a 1:1 binding model.
On the technique in general: SPR reads the build-up and loss of mass on a sensor chip optically.

Test [7] deals with T3, human CLDN18.2 on cells (CHO-hCLDN18.2, …). Kind of test: flow cytometry (FACS) on KATO III-hCLDN18.2 cells, MFI against Log[Conc(nM)]; EC50 from the table under the plot. The procedure:
as §2
A general note: A flow cytometer gives signals particle by particle.

For test [8] the target is unchanged. Kind of test: flow cytometry (FACS) on the gastric cancer cell line NUGC-4, MFI against Log[Conc(nM)]; EC50 from the table under the plot. As to the method: as §2
Test [9] has the same target. Put plainly: flow cytometry (FACS) on CHO-hCLDN18.2 cells, MFI against Log[Conc.(nM)]; EC50 from the table under the plot. As to the method:
as §1
This is another data set of the same source.

B1: 38F8 (antibody, human IgG1, kappa, V domains shown)
VH: EVQLVESGGGLVKPGGSLKLSCAASGFSFSDYGMHWVRQAPEKGLEWIAYINSGSRTLYYADTVKGRFTISRDNAKNTLFLQMTSLRSEETAMYYCTRNAYYGNAMDYWGQGTSVTVSS
VL: DIQMTQSPSSLTVTAGEKVTMSCKSSQSLLNSGNQRNYLTWYQQIPGQPPKLLIYWSSTRGSGVPDRFTGSGSGTDFTLTISSVQAEDLAVYFCQNVYYYPFTFGSGTRLEVKR
By Kd is commonly meant a measure of binding affinity in units of concentration. Read a low Kd as a tighter complex. Usually EC50 stands for the concentration needed to bring the measured effect to its halfway point. High values mean weaker potency, low ones greater potency. For B1, the binding result in [1] is “no binding”. The affinity in [2], expressed as Kd, was 1.03 nM. In addition, in test [3], a half-maximal response (EC50) required 5.88 nM.

B2: 46F6 (antibody, human IgG1, kappa, V domains shown)
VH: QVQLKESGPGLVAPSQSLSITCTVSGFSLTDYGVSWIRQPPGKGLEWLGVMWGGGNTYYNSALKSRLSISKDNSKSQVFLKMNSLQSDDTAMYYCAKQRYGGNAMDYWGQGTSVTVSS
VL: DIQMTQSPSSLTVTAGEKVTMSCKSSQSLLNSGNQRNYLTWYQQIPGQPPKLLIYWASTRESGVPNRFTGSGSGAEFTLTISSVQTEDLAVYYCQNSYFYPFTFGAGTKLELKR
Consider B2, for which the binding result in test [1] is recorded as “no binding”. For the same molecule, binding in test [2] was put at a Kd of 0.732 nM. The molecule also showed an EC50 in test [4] of 5.41 nM.

B3: HB37A6 (fully human antibody) (antibody, human IgG1, kappa, V domains shown)
VH: EVQLLDSGGGLVQPGGSLRLSCAASGFTFSSYVMSWVRQAPGKGLNWVSTISHSGGSTYYADSVKGRFTISRDNSKNTLYLQMNSLRAEDTAVYYCAIDAPYYDILTGYRYWGQGTLVTVSS
VL: not shown
A word on the koff: it is the rate constant with which the complex falls apart. As a reminder, the kon is the rate constant with which the complex forms. For the molecule B3, the EC50 in test [5] amounted to 0.958 nM; in [7] it was 0.569 nM; in test [8] it was 1.08 nM; in test [3], 5.51 nM. Also, the Kd came to 0.72 nM in [6] and 0.326 nM in test [2]. In [6], the koff came to 0.000306 s⁻¹. This molecule also showed a kon in test [6] of 425000 M⁻¹ s⁻¹. For the same molecule, in test [1], the binding result is “no binding”.

B4: 14A5 (antibody, human IgG1, kappa, V domains shown)
VH: QVQLKESGPGLVAPSQSLSITCSVSGFSLNSYGVGWVRQPPGKGLEWLGVIWGDGSTNYHSVLISRLSIRKDNSKSQVFLKLNSLQTDDTATYYCAMITRGNAMDYWGQGTSVTVSS
VL: DIVMTQSPSSLTVTAGEKITMSCKSSQSLLNSGNQRNYLTWYQQKPGQTPKLLIYWASTRKSGVPDRFTGSGSGTDFTLTISSVQAEDLAVYSCQNNYLFPLTFGAGTKLELKR
Turning to B4, the binding result in [1] is “no binding”. Moreover, the midpoint of the response in [9], the EC50, lay at 5.49 nM. The molecule further displayed a dissociation constant Kd in test [2] of 0.529 nM.

B5: 69H9 (antibody, human IgG1, kappa, V domains shown)
VH: EVQLQQSGPELMKPGASVKISCKATGYSFSSYNIHWVKQSHGKSLEWIGYIAPFNGDSRYNQKFKGKATVTVDKSSSTAYMHLSSLTSEDSAVYYCGRLNRGNSLDYWGQGTSLTVSS
VL: B4 VL with I19V, L30F, T49P, K61E, V91F, S93Y, L99I, F100Y
On to B5, for which the binding result in [1] was “no binding”. Also, binding in [2] was characterised by a dissociation constant (Kd) of 0.946 nM. For the same molecule, in [4], the EC50 was 5.36 nM.

B6: Hz69H9 (antibody, human IgG1, kappa, V domains shown)
VH: QVQLVQSGAEVKKPGSSVKVSCKASGYSFSSYNIHWVRQAPGQGLEWMGYIAPFQGDSRYNQKFKGRVTITADKSTSTAYMELSSLRSEDTAVYYCARLNRGNSLDYWGQGTLVTVSS
VL: DIVMTQSPDSLAVSLGERATINCKSSQSLFNSGNQRNYLTWYQQKPGQPPKLLIYWASTRESGVPDRFSGSGSGTDFTLTISSLQAEDVAVYYCQNNYIYPLTFGGGTKVEIKR
Regarding B6, the EC50 in test [5] came out at 1.79 nM. Moreover, in test [6], binding was characterised by a dissociation constant (Kd) of 0.299 nM, the koff was 0.000116 s⁻¹ and the kon was determined as 387000 M⁻¹ s⁻¹. In test [7], the EC50 turned out to be 3.25 nM. Moreover, in test [8], the midpoint of the response, the EC50, lay at 2.2 nM.

B7: 59C1 (antibody, human IgG1, kappa, V domains shown)
VH: QVQLKESGPDLVKPSQSLSLTCTVTGYSITSGYGWNWIRQFPGNKLEWMGYIHFSGSTNYNPSLKSRISITRDTSKNQFFLQLNSVTTEDTATYYCARSGKGNAMDYWGQGTSVTVSS
VL: DIQMTQSPSSLTVTAGEKVTMSCKSSQSLLNSGNQKNYLTWYQQKPGQPPKLLIYWASTRESGVPDRFTGSGSGTDFTLTVINMQAEDLALYYCQNDYYFPFTFGSGTKLEIKR
As for B7, in test [1], the binding result is on record as “no binding”. This molecule returned an EC50 in test [9] of 5.7 nM. The same molecule had a Kd in [2] of 1.01 nM.

B8: 51H10 (antibody, human IgG1, kappa, V domains shown)
VH: EVQLQQSVPELVKPGASVRMSCKASGYTFTKYIIQWVKQKPGQGLEWIAYINPYNDDTKYNEKFKGKATLTSDKSASTAYMELSSLTSEDSAVYYCATTYYGNSFPNWGQGTLVTVSA
VL: DIVMTQSPSSLTVTAGERVTMTCKSSQSLLNSGNQKNYLTWYQQKPGQPPKLLIYWASTRESGVPDRFTGSGSGTDFTLTISSLQSEDLAVYFCQNDYSFPFTFGSGTKLEIKR
For B8, the binding result in [1] was “no binding”. In [9], this molecule had an EC50 of 7.51 nM. Moreover, the Kd in test [2] was 1.9 nM.

B9: 3G3 (antibody, human IgG1, kappa, V domains shown)
VH: QVQLQQSGPQLVRPGASVKISCKASGYSFTTYWMHWVKQRPGQGLEWIGLIDPSDSETRLNQKFKDKATLTVDKSSSTAYMRLSSPTSEDSAVYYCASNRWLLGWGQGTLVTVSS
VL: B2 VL with T5I, R36K, I45K, N66D, A75T, E76D, S97D, F99S, F102L, L112I
Take B9: in test [1], the binding result was “no binding”. The molecule further displayed an EC50 in [9] of 9.75 nM. Besides, binding in test [2] was put at a Kd of 2.8 nM.

B10: Positive control antibody Zmab (zolbetuximab) (antibody, human IgG1, kappa, V domains shown)
VH: QVQLQQPGAELVRPGASVKLSCKASGYTFTSYWINWVKQRPGQGLEWIGNIYPSDSYTNYNQKFKDKATLTVDKSSSTAYMQLSSPTSEDSAVYYCTRSWRGNSFDYWGQGTTLTVSS
VL: B8 VL with R18K, T22S, L84V, S86A, F93Y, F100Y
As for B10, the results for the EC50 in [9], in [3] and in [4] were 3.46 nM, 3.31 nM and 3.12 nM, respectively. This molecule showed a Kd in test [2] of 2.14 nM.

B11: 25C7 (antibody, human IgG1, kappa, V domains shown)
VH: EVMLVESGGGLVQPGGSRKLSCAASGFTFSDYGMAWVRQAPGKGPEWVAFINNLAYSIYYVDTVTGRFTISRENAKDTLYLEMSSLRSEDTALYYCARFTTGNVMDYWGQGTSVTVSS
VL: DIVMTQSPSSLTVTAGEKVTMTCKSSQSLLNGGNQKNYLTWYQQKPGQPPKLLIYWSSTRESGVPDRFTGSGSGTDFTLTITSVQAEDLAVYYCQNSYSYPLTFGSGTKLELKR
On to B11, for which the binding result in test [1] was “no binding”. For the same molecule, the EC50 in test [9] came to 13.6 nM. The Kd in test [2] worked out at 1.46 nM.
